For series [1], the target named is nucleolin (NCL) (human (human recombinant protein), UniProt P19338 1-710). In words: SPR; HEPES-KCl; SPR (Biacore T100, CM5 chip), HEPES-KCl buffer (composition, pH and temperature not given), oligos 15.6-1000 nM, heated 95 C 5 min and cooled to room temperature, 20 uL/min, 120 s contact and dissociation, 1 M KCl regeneration. (In SPR one partner is held on a chip, and binding of the other changes the refractive index at the surface.)

The target of series [2] is gp120 envelope glycoprotein (HIV-1 IIIB, UniProt P04578 33-511). Kind of series: SPR; HEPES-KCl; up to 1000 nM; SPR (Biacore T100, CM5 chip), HEPES-KCl buffer (composition, pH and temperature not given), oligos 15.6-1000 nM, heated 95 C 5 min and cooled to room temperature, 20 uL/min, 120 s contact and dissociation, 1 M KCl regeneration. Particulars: protein: recombinant.

Sequence of nucleolin (NCL) (P19338 whole entry): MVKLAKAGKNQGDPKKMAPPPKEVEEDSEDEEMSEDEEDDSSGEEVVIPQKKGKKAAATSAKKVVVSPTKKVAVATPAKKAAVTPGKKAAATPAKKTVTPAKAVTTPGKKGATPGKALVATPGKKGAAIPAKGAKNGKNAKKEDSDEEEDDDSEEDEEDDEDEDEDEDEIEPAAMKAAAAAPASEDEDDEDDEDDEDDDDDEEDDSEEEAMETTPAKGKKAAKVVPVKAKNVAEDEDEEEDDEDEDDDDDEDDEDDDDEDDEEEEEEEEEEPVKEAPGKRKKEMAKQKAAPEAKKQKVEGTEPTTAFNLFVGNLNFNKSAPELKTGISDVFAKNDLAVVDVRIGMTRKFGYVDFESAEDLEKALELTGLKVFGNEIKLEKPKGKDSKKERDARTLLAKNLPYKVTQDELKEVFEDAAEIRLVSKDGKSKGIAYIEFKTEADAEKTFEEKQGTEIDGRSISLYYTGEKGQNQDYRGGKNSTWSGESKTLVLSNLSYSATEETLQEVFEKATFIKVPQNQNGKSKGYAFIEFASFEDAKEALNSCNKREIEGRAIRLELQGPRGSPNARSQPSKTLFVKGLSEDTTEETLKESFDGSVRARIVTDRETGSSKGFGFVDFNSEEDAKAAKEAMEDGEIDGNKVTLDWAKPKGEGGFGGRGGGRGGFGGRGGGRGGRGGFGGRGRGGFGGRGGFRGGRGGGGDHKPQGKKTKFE

Regarding GGTGGTGGTGGTTGTGGTGGTGGTGG (structured_DNA) [AS1411], the Kd in series [1] (G4, described as dimeric) was determined as 34.2 nM.

B1: SCRA (ssDNA)
DNA: TTTTTGGAGCGTGTGTGCGCGAGAGCGTGCGCGTGGCGAGCGTGGAGTGGTTTTT
As to B1, the binding result in series [2] (G-rich, non-G4) is on record as “no binding”.

As for GGGAGGCGTGGCCTGGGCGGGACTGGGG (structured_DNA) [LTR-III], in series [1] (G4), the dissociation constant Kd turned out to be 76.3 nM.

On to CCTCCTCCTCCTTCTCCTCCTCCTCC (ssDNA) [CRO26], for which the binding result in series [2] (C-rich, negative control) is on record as “no binding”.

As usually defined, the Kd is a measure of binding affinity in units of concentration.

The values above are taken from PMC4840014, “The G-quadruplex-forming aptamer AS1411 potently inhibits HIV-1 attachment to the host cell”.
